Results: paper PMC11574045, “A cofactor-induced repressive type of transcription factor condensation can be induced by synthetic peptides to suppress tumorigenesis” (The EMBO Journal, 2024)

B1: ZBTB38 (protein, UniProt Q8NAP3 1-1195, looked up)
Zinc finger and BTB …: MTVMSLSRDLKDDFHSDTVLSILNEQRIRGILCDVTIIVEDTKFKAHSNVLAASSLYFKNIFWSHTICISSHVLELDDLKAEVFTEILNYIYSSTVVVKRQETVTDLAAAGKKLGISFLEDLTDRNFSNSPGPYVFCITEKGVVKEEKNEKRHEEPAITNGPRITNAFSIIETENSNNMFSPLDLRASFKKVSDSMRTASLCLERTDVCHEAEPVRTLAEHSYAVSSVAEAYRSQPVREHDGSSPGNTGKENCEALAAKPKTCRKPKTFSIPQDSDSATENIPPPPVSNLEVNQERSPQPAAVLTRSKSPNNEGDVHFSREDENQSSDVPGPPAAEVPPLVYNCSCCSKAFDSSTLLSAHMQLHKPTQEPLVCKYCNKQFTTLNRLDRHEQICMRSSHMPIPGGNQRFLENYPTIGQNGGSFTGPEPLLSENRIGEFSSTGSTLPDTDHMVKFVNGQMLYSCVVCKRSYVTLSSLRRHANVHSWRRTYPCHYCNKVFALAEYRTRHEIWHTGERRYQCIFCLETFMTYYILKNHQKSFHAIDHRLSISKKTANGGLKPSVYPYKLYRLLPMKCKRAPYKSYRNSSYENARENSQMNESAPGTYVVQNPHSSELPTLNFQDTVNTLTNSPAIPLETSACQDIPTSANVQNAEGTKWGEEALKMDLDNNFYSTEVSVSSTENAVSSDLRAGDVPVLSLSNSSENAASVISYSGSAPSVIVHSSQFSSVIMHSNAIAAMTSSNHRAFSDPAVSQSLKDDSKPEPDKVGRFASRPKSIKEKKKTTSHTRGEIPEESNYVADPGGSLSKTTNIAEETSKIETYIAKPALPGTSTNSNVAPLCQITVKIGNEAIVKRHILGSKLFYKRGRRPKYQMQEEPLPQGNDPEPSGDSPLGLCQSECMEMSEVFDDASDQDSTDKPWRPYYNYKPKKKSRQLKKMRKVNWRKEHGNRSPSHKCKYPAELDCAVGKAPQDKPFEEEETKEMPKLQCELCDGDKAVGAGNQGRPHRHLTSRPYACELCAKQFQSPSTLKMHMRCHTGEKPYQCKTCGRCFSVQGNLQKHERIHLGLKEFVCQYCNKAFTLNETLKIHERIHTGEKRYHCQFCFQRFLYLSTKRNHEQRHIREHNGKGYACFQCPKICKTAAALGMHQKKHLFKSPSQQEKIGDVCHENSNPLENQHFIGSEDNDQKDNIQTGVENVVL
B2: ZBTB4 (protein, UniProt Q9P1Z0 1-1013, looked up)
Zinc finger and BTB …: MPPPAEVTDPSHAPAVLRQLNEQRLRGLFCDVTLIAGDTKFPAHRSVLAASSPFFREALLTSAPLPLPPATGGAAPNPATTTAASSSSSSSSSSSSSSSSASSSSSSSSSSPPPASPPASSPPRVLELPGVPAAAFSDVLNFIYSARLALPGGGGDGAAVAEIGALGRRLGISRLQGLGEGGDAWVPPTPAPMATSQPEEDSFGPGPRPAGEWEGDRAEAQAPDLQCSLPRRPLPCPQCGKSFIHPKRLQTHEAQCRRGASTRGSTGLGAGGAGPGGPAGVDASALPPPVGFRGGPEHVVKVVGGHVLYVCAACERSYVTLSSLKRHSNVHSWRRKYPCRYCEKVFALAEYRTKHEVWHTGERRYQCIFCWETFVTYYNLKTHQRAFHGISPGLLASEKTPNGGYKPKLNTLKLYRLLPMRAAKRPYKTYSQGAPEAPLSPTLNTPAPVAMPASPPPGPPPAPEPGPPPSVITFAHPAPSVIVHGGSSSGGGGSGTASTGGSQAASVITYTAPPRPPKKREYPPPPPEPAATPTSPATAVSPATAAGPAMATTTEEAKGRNPRAGRTLTYTAKPVGGIGGGGGPPTGAGRGPSQLQAPPPLCQITVRIGEEAIVKRRISETDLRPGELSGEEMEESEEDEEEEDEEEEEEDEEESKAGGEDQLWRPYYSYKPKRKAGAAGGASVGGSGLPRGRRPPRWRQKLERRSWEETPAAESPAGRARTERRHRCGDCAQTFTTLRKLRKHQEAHGGGSHSSRAGRRPSTRFTCPHCAKVCKTAAALSRHGQRHAAERPGGTPTPVIAYSKGSAGTRPGDVKEEAPQEMQVSSSSGEAGGGSTAAEEASETASLQDPIISGGEEPPVVASGGSYVYPPVQEFPLALIGGGREPGGGRGKSGSEGPVGAGEGDRMEGIGAAKVTFYPEPYPLVYGPQLLAAYPYNFSNLAALPVALNMVLPDEKGAGALPFLPGVFGYAVNPQAAPPAPPTPPPPTLPPPIPPKGEGERAGVERTQKGDVG
B3: ZBTB43 (protein, UniProt O43298 1-467, looked up)
Zinc finger and BTB …: MEPGTNSFRVEFPDFSSTILQKLNQQRQQGQLCDVSIVVQGHIFRAHKAVLAASSPYFCDQVLLKNSRRIVLPDVMNPRVFENILLSSYTGRLVMPAPEIVSYLTAASFLQMWHVVDKCTEVLEGNPTVLCQKLNHGSDHQSPSSSSYNGLVESFELGSGGHTDFPKAQELRDGENEEESTKDELSSQLTEHEYLPSNSSTEHDRLSTEMASQDGEEGASDSAEFHYTRPMYSKPSIMAHKRWIHVKPERLEQACEGMDVHATYDEHQVTESINTVQTEHTVQPSGVEEDFHIGEKKVEAEFDEQADESNYDEQVDFYGSSMEEFSGERSDGNLIGHRQEAALAAGYSENIEMVTGIKEEASHLGFSATDKLYPCQCGKSFTHKSQRDRHMSMHLGLRPYGCGVCGKKFKMKHHLVGHMKIHTGIKPYECNICAKRFMWRDSFHRHVTSCTKSYEAAKAEQNTTEAN
B4: ZBTB44 (protein, UniProt Q8NCP5 1-570, looked up)
Zinc finger and BTB …: MGVKTFTHSSSSHSQEMLGKLNMLRNDGHFCDITIRVQDKIFRAHKVVLAACSDFFRTKLVGQAEDENKNVLDLHHVTVTGFIPLLEYAYTATLSINTENIIDVLAAASYMQMFSVASTCSEFMKSSILWNTPNSQPEKGLDAGQENNSNCNFTSRDGSISPVSSECSVVERTIPVCRESRRKRKSYIVMSPESPVKCGTQTSSPQVLNSSASYSENRNQPVDSSLAFPWTFPFGIDRRIQPEKVKQAENTRTLELPGPSETGRRMADYVTCESTKTTLPLGTEEDVRVKVERLSDEEVHEEVSQPVSASQSSLSDQQTVPGSEQVQEDLLISPQSSSIGSVDEGVSEGLPTLQSTSSTNAPPDDDDRLENVQYPYQLYIAPSTSSTERPSPNGPDRPFQCPTCGVRFTRIQNLKQHMLIHSGIKPFQCDRCGKKFTRAYSLKMHRLKHEGKRCFRCQICSATFTSFGEYKHHMRVSRHIIRKPRIYECKTCGAMFTNSGNLIVHLRSLNHEASELANYFQSSDFLVPDYLNQEQEETLVQYDLGEHGFESNSSVQMPVISQYHSKGKEP
B5: ZBTB48 (protein, UniProt P10074 1-688, looked up)
Zinc finger and BTB …: MDGSFVQHSVRVLQELNKQREKGQYCDATLDVGGLVFKAHWSVLACCSHFFQSLYGDGSGGSVVLPAGFAEIFGLLLDFFYTGHLALTSGNRDQVLLAARELRVPEAVELCQSFKPKTSVGQAAGGQSGLGPPASQNVNSHVKEPAGLEEEEVSRTLGLVPRDQEPRGSHSPQRPQLHSPAQSEGPSSLCGKLKQALKPCPLEDKKPEDCKVPPRPLEAEGAQLQGGSNEWEVVVQVEDDGDGDYMSEPEAVLTRRKSNVIRKPCAAEPALSAGSLAAEPAENRKGTAVPVECPTCHKKFLSKYYLKVHNRKHTGEKPFECPKCGKCYFRKENLLEHEARNCMNRSEQVFTCSVCQETFRRRMELRVHMVSHTGEMPYKCSSCSQQFMQKKDLQSHMIKLHGAPKPHACPTCAKCFLSRTELQLHEAFKHRGEKLFVCEECGHRASSRNGLQMHIKAKHRNERPHVCEFCSHAFTQKANLNMHLRTHTGEKPFQCHLCGKTFRTQASLDKHNRTHTGERPFSCEFCEQRFTEKGPLLRHVASRHQEGRPHFCQICGKTFKAVEQLRVHVRRHKGVRKFECTECGYKFTRQAHLRRHMEIHDRVENYNPRQRKLRNLIIEDEKMVVVALQPPAELEVGSAEVIVESLAQGGLASQLPGQRLCAEESFTGPGVLEPSLIITAAVPEDCDT
B6: ZBTB5 (protein, UniProt O15062 1-677, looked up)
Zinc finger and BTB …: MDFPGHFEQIFQQLNYQRLHGQLCDCVIVVGNRHFKAHRSVLAACSTHFRALFSVAEGDQTMNMIQLDSEVVTAEAFAALIDMMYTSTLMLGESNVMDVLLAASHLHLNSVVKACKHYLTTRTLPMSPPSERVQEQSARMQRSFMLQQLGLSIVSSALNSSQNGEEQPAPMSSSMRSNLDQRTPFPMRRLHKRKQSAEERARQRLRPSIDESAISDVTPENGPSGVHSREEFFSPDSLKIVDNPKADGMTDNQEDSAIMFDQSFGTQEDAQVPSQSDNSAGNMAQLSMASRATQVETSFDQEAAPEKSSFQCENPEVGLGEKEHMRVVVKSEPLSSPEPQDEVSDVTSQAEGSESVEVEGVVVSAEKIDLSPESSDRSFSDPQSSTDRVGDIHILEVTNNLEHKSTFSISNFLNKSRGNNFTANQNNDDNIPNTTSDCRLESEAPYLLSPEAGPAGGPSSAPGSHVENPFSEPADSHFVRPMQEVMGLPCVQTSGYQGGEQFGMDFSRSGLGLHSSFSRVMIGSPRGGASNFPYYRRIAPKMPVVTSVRSSQIPENSTSSQLMMNGATSSFENGHPSQPGPPQLTRASADVLSKCKKALSEHNVLVVEGARKYACKICCKTFLTLTDCKKHIRVHTGEKPYACLKCGKRFSQSSHLYKHSKTTCLRWQSSNLPSTLL
B7: C1QBP (protein, UniProt Q07021 74-282, looked up)
Complement component 1 Q …: LHTDGDKAFVDFLSDEIKEERKIQKHKTLPKMSGGWELELNGTEAKLVRKVAGEKITVTFNINNSIPPTFDGEEEPSQGQKVEEQEPELTSTPNFVVEVIKNDDGKKALVLDCHYPEDEVGQEDEAESDIFSIREVSFQSTGESEWKDTNYTLNTDSLDWALYDHLMDFLADRGVDNTFADELVELSTALEHQEYITFLEDLKSFVKSQ
B8: ZBTB6 (protein, UniProt Q15916 1-424, looked up)
Zinc finger and BTB …: MAAESDVLHFQFEQQGDVVLQKMNLLRQQNLFCDVSIYINDTEFQGHKVILAACSTFMRDQFLLTQSKHVRITILQSAEVGRKLLLSCYTGALEVKRKELLKYLTAASYLQMVHIVEKCTEALSKYLEIDLSMKNNNQHTDLCQSSDPDVKNEDENSDKDCEIIEISEDSPVNIDFHVKEEESNALQSTVESLTSERKEMKSPELSTVDIGFKDNEICILHVESISTAGVENGQFSQPCTSSKASMYFSETQHSLINSTVESRVAEVPGNQDQGLFCENTEGSYGTVSEIQNLEEGYSLRHQCPRCPRGFLHVENYLRHLKMHKLFLCLQCGKTFTQKKNLNRHIRGHMGIRPFQCTVCLKTFTAKSTLQDHLNIHSGDRPYKCHCCDMDFKHKSALKKHLTSVHGRSSGEKLSRPDLKRQSLL
B9: ZDHHC18 (protein, UniProt Q9NUE0 1-388, looked up)
Palmitoyltransferase ZDHHC18: MKDCEYQQISPGAAPLPASPGARRPGPAASPTPGPGPAPPAAPAPPRWSSSGSGSGSGSGSLGRRPRRKWEVFPGRNRFYCGGRLMLAGHGGVFALTLLLILTTTGLFFVFDCPYLARKLTLAIPIIAAILFFFVMSCLLQTSFTDPGILPRATVCEAAALEKQIDNTGSSTYRPPPRTREVLINGQMVKLKYCFTCKMFRPPRTSHCSVCDNCVERFDHHCPWVGNCVGRRNYRFFYAFILSLSFLTAFIFACVVTHLTLRAQGSNFLSTLKETPASVLELVICFFSIWSILGLSGFHTYLVASNLTTNEDIKGSWSSKRGGEASVNPYSHKSIITNCCAVLCGPLPPSLIDRRGFVQSDTVLPSPIRSDEPACRAKPDASMVGGHP

Tested on: HEK293FT cells transfected with TF library
Experiment: Screening of TF condensates based on fluorescent puncta
Type: cell-based
Conditions: Figure 1B numerical data; TF library screen, one value per transcriptional factor
How it was run: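 Each TF construct was introduced into HEK293FT cells using PEI at 4.8 μg/ml; glucose deprivation versus normal medium lasted 12 h. Automated confocal-style imaging of tagged TF staining, 50 fields per well, gave the puncta data.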

First: B1
Second: B2
The “Z score of condensed fraction” value of the first is lower: -1.284 for the first, 1.258 for the second.

Going from B3 to B4, the “Z score of condensed fraction” value falls from 0.02104 to -0.608.

Going from B5 to B6, the “Z score of condensed fraction” value falls from 0.7506 to -0.7904.

Going from B7 to B8, the “Z score of condensed fraction” value falls from 2.537 to -0.2886.

For B9, the “Z score of condensed fraction” value was -0.2463.
